Experiments:
monomeric gp120 = assay: ELISA or SPR against neutralization
epitope-scaffold 2ZJR_A = assay: ELISA, PG9 dilution series
[1] = target: Env of HIV-1 strain CNE56 (pseudovirus) (HIV-1)
[2] = target: Env of HIV-1 strain QH209 (pseudovirus) (HIV-1)
[3] = target: Env of HIV-1 strain 0439 (pseudovirus) (HIV-1)
[4] = target: Env of HIV-1 strain 398 (pseudovirus) (HIV-1)
epitope-scaffold 2ZJR_B = assay: ELISA, antibody dilution series on the scaffold
[5] = target: 1FD6 CAP45 scaffold N192D; assay: ELISA, supernatant on His grab plates
[6] = target: 1FD6 CAP45 scaffold N156D; assay: ELISA, supernatant on His grab plates
[7] = target: 1FD6 CAP45 scaffold N147D; assay: ELISA, supernatant on His grab plates
1FD6-CAP45 V1V2 scaffold = assay: ELISA, supernatant on His grab plates
[8] = target: 1FD6 CAP45 scaffold N160Q; assay: ELISA, supernatant on His grab plates
[9] = target: 1FD6 CAP45 scaffold N143D; assay: ELISA, supernatant on His grab plates

Substance: monoclonal antibody PG9
- fold weaker affinity for monomeric gp120 than for the viral spike (monomeric gp120): > 10 fold
- EC50 (read off the curve) (epitope-scaffold 2ZJR_A): 0.01 µg/mL
- neutralization IC50 [1]: > 50 µg/mL
- neutralization IC50 (CNE5): < 0.023 µg/mL
- neutralization IC50 (KER2018.11): 0.001 µg/mL
- neutralization IC50 (MS208.A1): 0.071 µg/mL
- neutralization IC50 (3301_V1_C24): 0.281 µg/mL
- neutralization IC50 (MB201.A1): 0.024 µg/mL
- neutralization IC50 (3415.v1.c1): 0.149 µg/mL
- neutralization IC50 (C2101.c1): 0.026 µg/mL
- neutralization IC50 [2]: > 50 µg/mL
- neutralization IC50 (M02138): 0.122 µg/mL
- neutralization IC50 (MI369.A5): 0.058 µg/mL
- neutralization IC50 (R2184.c4): 0.2 µg/mL
- neutralization IC50 (Q769.d22): 0.007 µg/mL
- neutralization IC50 (KER2008.12): 0.017 µg/mL
- neutralization IC50 (6540.v4.c1): 0.035 µg/mL
- neutralization IC50 (3468_V1_C12): 2.09 µg/mL
- neutralization IC50 [3]: > 50 µg/mL
- neutralization IC50 (KNH1209.18): 0.367 µg/mL
- neutralization IC50 (CNE59): 0.091 µg/mL
- neutralization IC50 (MB539.2B7): 0.058 µg/mL
- neutralization IC50 (TH966.8): 0.042 µg/mL
- neutralization IC50 (CNE55): 0.146 µg/mL
- neutralization IC50 (3589_V1_C4): 0.025 µg/mL
- neutralization IC50 (BS208.B1): 0.031 µg/mL
- neutralization IC50 (Q769.h5): 0.002 µg/mL
- neutralization IC50 (6095_V1_C10): 0.242 µg/mL
- neutralization IC50 (R1166.c1): 1.55 µg/mL
- neutralization IC50 (Q168.a2): 0.106 µg/mL
- neutralization IC50 (UG037.8): 0.021 µg/mL
- neutralization IC50 (0330.v4.c3): 0.018 µg/mL
- neutralization IC50 (RW020.2): 0.103 µg/mL
- neutralization IC50 (BB539.2B13): 0.106 µg/mL
- neutralization IC50 [4]: > 50 µg/mL
- neutralization IC50 (0260.v5.c36): 2.18 µg/mL
- neutralization IC50 (Q23.17): 0.007 µg/mL
- neutralization IC50 (C1080.c3): 0.004 µg/mL
- neutralization IC50 (Q842.d12): 0.005 µg/mL
- neutralization IC50 (C3347.c11): 0.038 µg/mL
- neutralization IC50 (620345.c1): 0.393 µg/mL
- neutralization IC50 (Q461.e2): 3.01 µg/mL
- neutralization IC50 (0815_V3_C3): > 50 µg/mL
- neutralization IC50 (6545_V4_C1): 0.095 µg/mL
- neutralization IC50 (TH976.17): > 50 µg/mL
- neutralization IC50 (BB201.B42): 0.014 µg/mL
- neutralization IC50 (CNE3): 0.079 µg/mL
- neutralization IC50 (3718.v3.c11): 0.05 µg/mL
- neutralization IC50 (C4118.09): 0.037 µg/mL
- neutralization IC50 (R3265.c6): 1.3 µg/mL
- neutralization IC50 (BI369.9A): 0.029 µg/mL
- neutralization IC50 (Q259.17): 0.045 µg/mL
- EC50 (read off the curve) (epitope-scaffold 2ZJR_B): 0.1 µg/mL
- neutralization IC80 (DU151.02 (HIV-1)): 0.057 µg/mL
- neutralization IC80 (DU422.01 (HIV-1)): 15.8 µg/mL
- neutralization IC80 (CNE58 (HIV-1)): 0.068 µg/mL
- neutralization IC80 (0077_V1_C16 (HIV-1)): 0.343 µg/mL
- neutralization IC80 (CAP244.D3 (HIV-1)): 0.362 µg/mL
- neutralization IC80 (96ZM651_02 (HIV-1)): > 50 µg/mL
- neutralization IC80 (TZA125.17 (HIV-1)): 1.21 µg/mL
- neutralization IC80 (ZA012.29 (HIV-1)): > 50 µg/mL
- EC50 [5]: 0.2 µg/mL
- EC50 [6]: 4.9 µg/mL
- EC50 [7]: 0.1 µg/mL
- EC50 (1FD6-CAP45 V1V2 scaffold): 0.2 µg/mL
- EC50 [8]: > 50 µg/mL
- EC50 [9]: 0.1 µg/mL

Substance: monoclonal antibody PG16
- fold weaker affinity for monomeric gp120 than for the viral spike (monomeric gp120): > 100 fold
- neutralization IC50 [1]: > 50 µg/mL
- neutralization IC50 (CNE5): < 0.023 µg/mL
- neutralization IC50 (KER2018.11): < 0.0006 µg/mL
- neutralization IC50 (MS208.A1): 0.047 µg/mL
- neutralization IC50 (3301_V1_C24): < 0.023 µg/mL
- neutralization IC50 (MB201.A1): 0.001 µg/mL
- neutralization IC50 (3415.v1.c1): 0.036 µg/mL
- neutralization IC50 (C2101.c1): 0.009 µg/mL
- neutralization IC50 [2]: > 50 µg/mL
- neutralization IC50 (M02138): 0.022 µg/mL
- neutralization IC50 (MI369.A5): 0.011 µg/mL
- neutralization IC50 (R2184.c4): 0.28 µg/mL
- neutralization IC50 (Q769.d22): 0.01 µg/mL
- neutralization IC50 (KER2008.12): 0.006 µg/mL
- neutralization IC50 (6540.v4.c1): 0.017 µg/mL
- neutralization IC50 (3468_V1_C12): 2.38 µg/mL
- neutralization IC50 [3]: > 50 µg/mL
- neutralization IC50 (KNH1209.18): 0.678 µg/mL
- neutralization IC50 (CNE59): 0.113 µg/mL
- neutralization IC50 (MB539.2B7): 0.025 µg/mL
- neutralization IC50 (TH966.8): 0.008 µg/mL
- neutralization IC50 (CNE55): 1.37 µg/mL
- neutralization IC50 (3589_V1_C4): 0.728 µg/mL
- neutralization IC50 (BS208.B1): 0.004 µg/mL
- neutralization IC50 (Q769.h5): 0.002 µg/mL
- neutralization IC50 (6095_V1_C10): < 0.023 µg/mL
- neutralization IC50 (R1166.c1): 0.587 µg/mL
- neutralization IC50 (Q168.a2): 0.031 µg/mL
- neutralization IC50 (UG037.8): 0.001 µg/mL
- neutralization IC50 (0330.v4.c3): 0.006 µg/mL
- neutralization IC50 (RW020.2): 0.07 µg/mL
- neutralization IC50 (BB539.2B13): 0.012 µg/mL
- neutralization IC50 [4]: > 50 µg/mL
- neutralization IC50 (0260.v5.c36): 2.1 µg/mL
- neutralization IC50 (Q23.17): 0.002 µg/mL
- neutralization IC50 (C1080.c3): 0.001 µg/mL
- neutralization IC50 (Q842.d12): 0.001 µg/mL
- neutralization IC50 (C3347.c11): 0.006 µg/mL
- neutralization IC50 (620345.c1): > 50 µg/mL
- neutralization IC50 (Q461.e2): 4.11 µg/mL
- neutralization IC50 (0815_V3_C3): > 50 µg/mL
- neutralization IC50 (6545_V4_C1): 0.068 µg/mL
- neutralization IC50 (TH976.17): > 50 µg/mL
- neutralization IC50 (BB201.B42): 0.003 µg/mL
- neutralization IC50 (CNE3): 0.173 µg/mL
- neutralization IC50 (3718.v3.c11): 0.019 µg/mL
- neutralization IC50 (C4118.09): 0.021 µg/mL
- neutralization IC50 (R3265.c6): 0.036 µg/mL
- neutralization IC50 (BI369.9A): 0.007 µg/mL
- neutralization IC50 (Q259.17): 0.028 µg/mL
- EC50 (read off the curve) (epitope-scaffold 2ZJR_B): 1 µg/mL
- neutralization IC80 (DU151.02 (HIV-1)): < 0.023 µg/mL
- neutralization IC80 (DU422.01 (HIV-1)): 49.9 µg/mL
- neutralization IC80 (CNE58 (HIV-1)): < 0.023 µg/mL
- neutralization IC80 (0077_V1_C16 (HIV-1)): 0.075 µg/mL
- neutralization IC80 (CAP244.D3 (HIV-1)): 0.058 µg/mL
- neutralization IC80 (96ZM651_02 (HIV-1)): > 50 µg/mL
- neutralization IC80 (TZA125.17 (HIV-1)): 0.719 µg/mL
- neutralization IC80 (ZA012.29 (HIV-1)): > 50 µg/mL
- EC50 [5]: 27 µg/mL
- EC50 [6]: > 50 µg/mL
- EC50 [7]: 0.7 µg/mL
- EC50 (1FD6-CAP45 V1V2 scaffold): 9.1 µg/mL
- EC50 [8]: > 50 µg/mL
- EC50 [9]: 3.3 µg/mL

— US20140348865A1, “[…] ON AN HIV-1 V1V2 SITE-OF-VULNERABILITY” (The United States of America, as represented by the …, priority 2011, published 2014)
